We go through 4 molecules from patent publication US20250009876A1 (H LUNDBECK A S, published 2025).

In experiment [1] the target is T1, PACAP38 (Pituitary Adenylate Cyclase-Activating Polypeptide, 38 amino acids) (human, not fully specified; the C-terminal lysine is amidated).
T1 peptide: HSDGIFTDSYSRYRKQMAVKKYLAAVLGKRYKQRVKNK
Put plainly: cell-based or functional assay.

The target of experiment [2] is T2, PACAP27 (Pituitary Adenylate Cyclase-Activating Polypeptide, 27 amino acids) (human, the C-terminal leucine is amidated).
T2 peptide: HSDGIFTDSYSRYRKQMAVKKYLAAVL
Put plainly: cell-based or functional assay.

Experiment [3] deals with T3, VIP (Vasoactive Intestinal Peptide) (human).
T3 construct: also called human VIP
T3 peptide: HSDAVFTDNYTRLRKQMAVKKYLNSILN
Description: SPR (ProteOn XPR36), antibody amine-coupled, peptide analyte, 1:1 Langmuir fit.

The target of experiment [4] is T1, PACAP38 (Pituitary Adenylate …). The experiment is described as above. On the procedure:
(§1) Binding affinities of monoclonal antibodies for human PACAP were estimated using SPR on the PROTEON™ XPR36 (Bio-Rad, Hercules, CA). Antibody was immobilized to the surface of general amine coupling (“GLC” or “GLM”) Chips (Bio-Rad, Hercules, CA). […] Antigen (ranging from 1.23 nM to 100 nM) was typically run sequentially with association times of 2-4 minutes and dissociation times of 3-120 minutes grouped with the PROTEON™ Manager Software (v3.1.0.6 (Bio-Rad, Hercules, CA)) and fitted using a 1:1 Langmuir binding model. Surfaces were regenerated between analyte queries using 0.85% Phosphoric Acid.

The target in experiment [5] is T2, PACAP27 (Pituitary Adenylate …). The description is as above. How it is done:
as §1

Experiment [6] addresses T4, PAC1-R on PAC1-R-expressing PC-12 cells (UniProt P32215 20-523).
T4 construct: whole, on cells; also called PAC1 receptor
T4 sequence (looked up): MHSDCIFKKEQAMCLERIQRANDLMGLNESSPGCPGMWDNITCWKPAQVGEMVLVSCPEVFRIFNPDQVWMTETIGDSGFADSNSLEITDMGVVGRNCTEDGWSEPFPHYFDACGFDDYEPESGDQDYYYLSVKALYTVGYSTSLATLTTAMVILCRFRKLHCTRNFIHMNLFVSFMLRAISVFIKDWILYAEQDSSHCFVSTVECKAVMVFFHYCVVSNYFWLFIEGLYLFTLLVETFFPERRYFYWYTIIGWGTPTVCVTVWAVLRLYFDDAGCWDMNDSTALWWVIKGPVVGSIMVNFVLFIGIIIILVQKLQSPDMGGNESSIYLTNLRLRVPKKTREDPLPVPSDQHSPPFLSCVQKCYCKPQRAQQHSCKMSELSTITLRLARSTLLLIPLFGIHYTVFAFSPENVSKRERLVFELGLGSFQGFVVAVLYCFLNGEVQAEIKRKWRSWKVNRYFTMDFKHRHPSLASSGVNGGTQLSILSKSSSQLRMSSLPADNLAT
Put plainly: cell surface binding assay (DELFIA TRF): antibody pre-incubated with PACAP38, added to PAC1-R-expressing PC-12 cells, detected with Eu anti-human IgG. On the procedure:
Cells were initially seeded at 1×10⁵ cells/well in a solution of complete RPMI (“cRPMI”: RPMI medium supplemented with 10% sterile heat-inactivated FBS and 1% sterile antibiotic/antimycotic)+10% FBS, and the plates were allowed to incubate overnight at 37° C. On the day of the binding assay, antibodies at an initial concentration of 15 μg/ml were diluted at a 1:3 ratio in DELFIA® binding buffer (50 mM Tris, 150 mM NaCl, 0.1% azide, 2% horse serum) (Perkin-Elmer, Waltham, MA) to a total volume of 60 μL in a separate 96 well round bottom plate. PACAP38 was prepared for the binding assay by diluting it in DELFIA® binding buffer to a concentration of 200 nM, and then 60 μl of the diluted PACAP38 was added to each of the antibody-containing wells to form antibody: antigen complexes. Following addition of PACAP38, the antibody: antigen complexes were incubated at room temperature on a shaker for 1 hour. Separately, the PC-12 cells were prepared for addition of antibody: antigen complexes by washing the cells two times with DELFIA® wash buffer (50 mM Tris, 150 mM NaCl, 0.1% Azide) (Perkin-Elmer, Waltham, MA). After washing the cells two times and following the 1 hour room temperature incubation of the antibody: antigen complexes, 50 μl of the antibody: antigen complex was added to each well containing cells. The mixtures of cells and antibody: antigen complexes were then incubated for 30 minutes at room temperature. Following this 30 minute incubation, each mixture was washed two times with DELFIA® wash buffer (Perkin-Elmer, Waltham, MA).
DELFIA® Europium labeled anti-human IgG detection reagent (Cat #1244-330, Perkin-Elmer, Waltham, MA) was diluted to a concentration of 300 ng/ml in DELFIA® Binding Buffer. Following dilution, 50 μl of the anti-human IgG detection reagent was added to each well containing cells, and a 30 minute incubation at room temperature followed this addition of IgG detection reagent. After completion of the 30 minute room temperature incubation, the cells were then washed two times with DELFIA® wash buffer. Next, 50 μl of DELFIA® Enhancement Solution (Cat #1244-105, Perkin-Elmer, Waltham, MA) was added to each well containing cells for a final 15 minute room temperature incubation with shaking. The plates were then read (TRF, excitation 330 nm, emission 620 nm) on a SPECTRAMAX® (Molecular Devices, Sunnyvale, CA) plate reader.

One may read the Kd as the concentration at which binding is half-saturated. High values mean a looser complex, low ones a tighter complex. As a reminder, the koff is a measure of how fast the partners let go of each other. Read a high koff as a short-lived complex. By kon is commonly meant a measure of how fast the partners come together.

B1: Ab10.H4 (antibody, human IgG1, kappa, N297A)
heavy: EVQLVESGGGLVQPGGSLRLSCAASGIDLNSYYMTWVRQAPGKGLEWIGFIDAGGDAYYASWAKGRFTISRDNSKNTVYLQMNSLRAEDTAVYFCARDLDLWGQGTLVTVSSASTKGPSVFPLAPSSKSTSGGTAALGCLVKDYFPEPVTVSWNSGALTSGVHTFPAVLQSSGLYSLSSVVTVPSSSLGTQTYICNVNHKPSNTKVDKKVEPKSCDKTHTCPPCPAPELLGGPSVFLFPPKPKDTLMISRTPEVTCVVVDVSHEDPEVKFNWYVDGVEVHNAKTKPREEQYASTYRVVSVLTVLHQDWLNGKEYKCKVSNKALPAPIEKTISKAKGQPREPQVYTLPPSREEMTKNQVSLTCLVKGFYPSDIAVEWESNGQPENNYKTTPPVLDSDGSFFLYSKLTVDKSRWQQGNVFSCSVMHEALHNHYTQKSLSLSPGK
light: DIVLTQSPSTLSASVGDRVTITCQSSESVYGNYLAWFQQKPGKAPKFLIYEASKLESGVPSRFSGSGSGTEFTLTISSLQPDDFATYYCAGGDISEGVAFGGGTKVEIKRTVAAPSVFIFPPSDEQLKSGTASVVCLLNNFYPREAKVQWKVDNALQSGNSQESVTEQDSKDSTYSLSSTLTLSKADYEKHKVYACEVTHQGLSSPVTKSFNRGEC
notes: Full-length humanized variant of Ab10
Turning to B1, the “Inhibition of 0.1 nM PACAP38-induced PAC1-R mediated cAMP increase IC50 (pM)” value in experiment [1] came to 22.8 pM. For the same molecule, the “Inhibition of 1 nM PACAP27-induced PAC1-R mediated cAMP increase IC50 (pM)” value in experiment [2] turned out to be 329 pM. The Kd is 98 nM in experiment [3], at most 0.019 nM in experiment [4] and 0.093 nM in experiment [5]. Besides, the koff in experiment [3] was 0.015 s⁻¹; in experiment [4], at most 1e-05 s⁻¹; in experiment [5] it was 1.7e-05 s⁻¹. Moreover, the figures for the kon in experiment [3], in experiment [4] and in experiment [5] were 150000 M⁻¹ s⁻¹, 530000 M⁻¹ s⁻¹ and 190000 M⁻¹ s⁻¹, respectively. Further, in experiment [6], the binding result is “no binding (tested: about 70 nM)”.

B2: Ab10.H2 (antibody, human IgG1, kappa, N297A)
heavy: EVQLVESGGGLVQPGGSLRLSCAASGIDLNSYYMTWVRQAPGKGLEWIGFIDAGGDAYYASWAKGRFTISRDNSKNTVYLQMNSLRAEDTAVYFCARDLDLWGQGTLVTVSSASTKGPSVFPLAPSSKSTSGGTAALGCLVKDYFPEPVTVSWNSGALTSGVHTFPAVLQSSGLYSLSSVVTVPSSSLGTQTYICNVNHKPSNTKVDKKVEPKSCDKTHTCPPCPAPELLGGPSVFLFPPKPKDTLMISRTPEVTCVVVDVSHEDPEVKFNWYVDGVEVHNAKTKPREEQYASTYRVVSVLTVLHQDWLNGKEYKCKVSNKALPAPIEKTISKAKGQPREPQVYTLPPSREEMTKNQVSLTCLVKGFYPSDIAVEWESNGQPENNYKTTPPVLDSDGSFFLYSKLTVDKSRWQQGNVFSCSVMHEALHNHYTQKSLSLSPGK
light: AVLTQSPSTLSASVGDRVTITCQSSESVYGNYLAWFQQKPGKAPKFLIYEASKLESGVPSRFSGSGSGTEFTLTISSLQPDDFATYYCAGGDISEGVAFGGGTKVEIKRTVAAPSVFIFPPSDEQLKSGTASVVCLLNNFYPREAKVQWKVDNALQSGNSQESVTEQDSKDSTYSLSSTLTLSKADYEKHKVYACEVTHQGLSSPVTKSFNRGEC
notes: as for B1
For the molecule B2, the “Inhibition of 0.1 nM PACAP38-induced PAC1-R mediated cAMP increase IC50 (pM)” value in experiment [1] amounted to 21.3 pM. Further, the “Inhibition of 1 nM PACAP27-induced PAC1-R mediated cAMP increase IC50 (pM)” value in experiment [2] was 466 pM. In experiment [3], binding was put at a Kd of 230 nM, the koff came out at 0.046 s⁻¹ and the kon came to 200000 M⁻¹ s⁻¹. In experiment [4], this molecule came in with a Kd of 0.022 nM, a koff of 1.4e-05 s⁻¹ and a kon of 630000 M⁻¹ s⁻¹. In experiment [5], this molecule had an equilibrium dissociation constant (Kd) of 0.078 nM, a koff of 1.7e-05 s⁻¹ and a kon of 210000 M⁻¹ s⁻¹. Also, the binding result in experiment [6] is “no binding (tested: about 70 nM)”.

B3: Ab10.H5 (antibody, human IgG1, kappa, N297A)
heavy: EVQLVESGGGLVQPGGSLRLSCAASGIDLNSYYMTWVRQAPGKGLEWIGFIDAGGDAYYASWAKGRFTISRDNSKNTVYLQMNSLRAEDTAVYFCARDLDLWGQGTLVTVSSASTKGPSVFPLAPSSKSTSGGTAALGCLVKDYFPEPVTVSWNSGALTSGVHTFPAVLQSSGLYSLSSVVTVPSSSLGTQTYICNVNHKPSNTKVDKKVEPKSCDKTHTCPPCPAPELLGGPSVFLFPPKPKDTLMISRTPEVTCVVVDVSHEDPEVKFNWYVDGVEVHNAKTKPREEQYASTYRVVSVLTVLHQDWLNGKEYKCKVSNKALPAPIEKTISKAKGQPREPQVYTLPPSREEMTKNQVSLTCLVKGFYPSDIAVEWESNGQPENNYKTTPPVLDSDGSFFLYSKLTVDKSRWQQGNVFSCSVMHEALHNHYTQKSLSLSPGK
light: QLTQSPSTLSASVGDRVTITCQSSESVYGNYLAWFQQKPGKAPKFLIYEASKLESGVPSRFSGSGSGTEFTLTISSLQPDDFATYYCAGGDISEGVAFGGGTKVEIKRTVAAPSVFIFPPSDEQLKSGTASVVCLLNNFYPREAKVQWKVDNALQSGNSQESVTEQDSKDSTYSLSSTLTLSKADYEKHKVYACEVTHQGLSSPVTKSFNRGEC
notes: as for B1
For B3, the “Inhibition of 0.1 nM PACAP38-induced PAC1-R mediated cAMP increase IC50 (pM)” value in experiment [1] was 22.7 pM. Besides, the “Inhibition of 1 nM PACAP27-induced PAC1-R mediated cAMP increase IC50 (pM)” value in experiment [2] stood at 733 pM. In addition, in experiment [6], the binding result is listed as “no binding (tested: about 70 nM)”.

B4: Ab23 (antibody, human IgG1, kappa, N297A, V domains shown)
VH: QSVEESGGRLVTPGTPLTLTCTVSGFSLNNYAMSWVRQAPGKGLEWIGIMGVNDITYYASWAKGRFTISKTSTTVDLKMTSLTTEDTATYFCTREIRDDGDSSDKLWGPGTLVTVSS
VL: AIKMTQTPSSVSAAVGGTVTINCQASEDIYTNLAWYQQKPGQPPNLLIYDASDLASGVPSRFSGSGDGTQFTLTISAVQCEDAATYYCQGVAWSSNTGYGSAFGGGTEVVVKR
notes: Full-length anti-PACAP antibody; rabbit/human chimeric
In the case of B4, in experiment [6], the binding result was “no binding (tested: about 70 nM)”.
